Results taken from patent publication US20030077706A1.

Biological target: CRF2-4/zcytor11 heterodimeric receptor (on BaF3/CRF2-4/zcytor11 cells) (human) (UniProt Q08334)
Assay: cell-based or functional assay

CRF2-4/zcytor11 heterodimeric receptor (on BaF3/CRF2-4/zcytor11 cells) (human), sequence (Q08334 20-325 limits assumed, chain 1 of 2): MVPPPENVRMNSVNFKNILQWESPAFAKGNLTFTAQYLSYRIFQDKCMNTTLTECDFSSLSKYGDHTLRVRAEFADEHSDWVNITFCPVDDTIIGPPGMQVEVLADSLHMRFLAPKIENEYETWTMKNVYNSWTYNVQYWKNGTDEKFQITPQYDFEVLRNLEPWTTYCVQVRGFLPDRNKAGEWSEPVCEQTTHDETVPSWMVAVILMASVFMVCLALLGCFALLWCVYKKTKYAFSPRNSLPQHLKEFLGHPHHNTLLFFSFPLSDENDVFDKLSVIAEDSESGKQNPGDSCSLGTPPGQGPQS
CRF2-4/zcytor11 heterodimeric receptor (on BaF3/CRF2-4/zcytor11 cells) (human), sequence (chain, as listed by the source limits assumed, chain 2 of 2): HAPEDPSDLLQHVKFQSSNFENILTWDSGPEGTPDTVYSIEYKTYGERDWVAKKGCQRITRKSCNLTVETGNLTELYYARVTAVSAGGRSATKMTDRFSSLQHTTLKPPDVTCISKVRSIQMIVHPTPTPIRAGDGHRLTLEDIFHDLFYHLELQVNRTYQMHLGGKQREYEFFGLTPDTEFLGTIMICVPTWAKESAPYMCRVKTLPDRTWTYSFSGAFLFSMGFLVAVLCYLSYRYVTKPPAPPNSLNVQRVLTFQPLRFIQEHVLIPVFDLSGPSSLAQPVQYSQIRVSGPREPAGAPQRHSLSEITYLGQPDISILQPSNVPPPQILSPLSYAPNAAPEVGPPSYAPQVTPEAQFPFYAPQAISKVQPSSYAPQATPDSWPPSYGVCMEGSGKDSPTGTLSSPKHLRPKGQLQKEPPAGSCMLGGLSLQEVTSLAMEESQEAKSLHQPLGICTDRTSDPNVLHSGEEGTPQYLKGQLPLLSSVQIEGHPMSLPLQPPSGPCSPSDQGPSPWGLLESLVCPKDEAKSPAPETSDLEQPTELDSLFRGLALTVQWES

- proliferation of BaF3/CRF2-4/zcytor11 cells (Alamar Blue), IL-TIF-CEE at 0.06 ng/ml (fold induction): 2
- proliferation of BaF3/CRF2-4/zcytor11 cells (Alamar Blue), IL-TIF-CEE at 50 ng/ml (fold over background): 15
Substance: purified human IL-TIF-CEE (IL-TIF with C-terminal Glu-Glu tag) (from UniProt Q9GZX6 34-179) (ligand)
